Reference: patent publication US20110301335A1 (published 2011)
Positions count from the first letter of the chain named.

B1: DOM1h-574 (other)
VH: EVQLLESGGGLVQPGGSLRLSCAASGFTFVKYSMGWVRQAPGKGLEWVSQISNTGGHTYYADSVKGRFTISRDNSKNTLYLQMNSLRAEDTAVYYCAKYTGRWEPFDYWGQGTLVTVSS
B2: DOM1h-574-8 (other)
VH: B1 VH with L45P, K98I
B3: DOM1h-574-11 (other)
VH: B1 VH with Y108H
B4: DOM1h-574-12 (other)
VH: B1 VH with G56D
B5: DOM1h-574-13 (other)
VH: B1 VH with G56D, H57R
B6: DOM1h-574-15 (other)
VH: B1 VH with G56D, K98I
B7: DOM1h-574-16 (other)
VH: B1 VH with L45P, G56D, H57R, K98I
B8: DOM1h-574-17 (other)
VH: B1 VH with L45P, G56D, K98I
B9: DOM1h-574-18 (other)
VH: B1 VH with V30G, G44D, G56D, H57R, K98I
B10: DOM1h-574-19 (other)
VH: B1 VH with V30G, G44D, G56D, K98I
B11: DMS0132 (bispecific antibody)
chain: EVQLLESGGGLVQPGGSLRLSCAASGFTFVKYSMGWVRQAPGKGLEWVSQISDTADRTYYAHSVKGRFTISRDNSKNTLYLQMNSLRAEDTAVYYCAIYTGRWVPFEYWGQGTLVTVSSASTDIQMTQSPSSLSASVGDRVTITCRASRPIGTTLSWYQQKPGKAPKLLILWNSRLQSGVPSRFSGSGSGTDFTLTISSLQPEDFATYYCAQAGTHPTTFGQGTKVEIKR
B12: DMS0133 (bispecific antibody)
chain: B11 chain with V30F, V104A
B13: DMS0134 (bispecific antibody)
chain: B11 chain with V30F
B14: DMS0135 (bispecific antibody)
chain: B11 chain with V30F, A61S
B15: DMS0182 (bispecific antibody)
chain: EVQLLESGGGLVQPGGSLRLSCAASGFTFVKYSMGWVRQAPGKGPEWVSQISNTGDRTYYADSVKGRFTISRDNSKNTLYLQMNSLRAEDTAVYYCAIYTGRWEPFDYWGQGTLVTVSSASTDIQMTQSPSSLSASVGDRVTITCRASRPIGTTLSWYQQKPGKAPKLLIWFGSRLQSGVPSRFSGSGSGTDFTLTISSLQPEDFATYYCAQAGTHPTTFGQGTKVEIKRAAAEQKLISEEDLN
B16: DMS0184 (bispecific antibody)
chain: EVQLLESGGGLVQPGGSLRLSCAASGFTFVKYSMGWVRQAPGKGPEWVSQISNTGDRTYYADSVKGRFTISRDNSKNTLYLQMNSLRAEDTAVYYCAIYTGRWEPFDYWGQGTLVTVSSASTSGPSDIQMTQSPSSLSASVGDRVTITCRASRPIGTTLSWYQQKPGKAPKLLIWFGSRLQSGVPSRFSGSGSGTDFTLTISSLQPEDFATYYCAQAGTHPTTFGQGTKVEIKR
B17: DMS0186 (bispecific antibody)
chain: B15 chain with T154M, W171L
B18: DMS0188 (bispecific antibody)
chain: EVQLLESGGGLVQPGGSLRLSCAASGFTFVKYSMGWVRQAPGKGPEWVSQISNTGDRTYYADSVKGRFTISRDNSKNTLYLQMNSLRAEDTAVYYCAIYTGRWEPFDYWGQGTLVTVSSASTSGPSDIQMTQSPSSLSASVGDRVTITCRASRPIGTMLSWYQQKPGKAPKLLILFGSRLQSGVPSRFSGSGSGTDFTLTISSLQPEDFATYYCAQAGTHPTTFGQGTKVEIKRAAAEQKLISEEDLN
B19: DMS0163 (bispecific antibody)
chain: B18 chain with F176A, G177F
B20: DMS0168 (bispecific antibody)
chain: EVQLLESGGGLVQPGGSLRLSCAASGFTFVKYSMGWVRQAPGKGLEWVSQISNTADRTYYAHSVKGRFTISRDNSKNTLYLQMNSLRAEDTAVYYCAIYTGRWVPFEYWGQGTLVTVSSASTSGPSDIQMTQSPSSLSASVGDRVTITCRASQSIIKHLKWYQQKPGKAPKLLIYGASRLQSGVPSRFSGSGSGTDFTLTISSLQPEDFATYYCQQGARWPQTFGQGTKVEIKRAAAEQKLISEEDLN
B21: DMS0169 (bispecific antibody)
chain: B18 chain with P45L, G55A, D62H, E104V, D107E
B22: DMS0111 (bispecific antibody)
chain: B11 chain with D53N
B23: DMS0112 (bispecific antibody)
chain: B11 chain with D53N, T154M, W172F, N173G
B24: DMS0115 (bispecific antibody)
chain: B16 chain with P45L, G55A, D62H, E104V, D107E, W175L, F176W, G177N
B25: DMS0116 (bispecific antibody)
chain: B16 chain with P45L, G55A, D62H, E104V, D107E, T158M, W175L
B26: DMS0118 (bispecific antibody)
chain: EVQLLESGGGLVQPGGSLRLSCAASGFTFVKYSMGWVRQAPGKGLEWVSQISNTADRTYYAHSVKGRFTISRDNSKNTLYLQMNSLRAEDTAVYYCAIYTGRWVPFEYWGQGTLVTVSSASTSGPSDIQMTQSPSSLSASVGDRVTITCRASQWIGSQLSWYQQKPGKAPKLLIMWRSSLQSGVPSRFSGSGSGTDFTLTISSLQPEDFATYYCAQGLMKPMTFGQGTKVEIKR
B27: DMS0121 (bispecific antibody)
chain: EVQLLESGGGLVQPGGSLRLSCAASGFTFVKYSMGWVRQAPGKGLEWVSQISNTADRTYYAHSVKGRFTISRDNSKNTLYLQMNSLRAEDTAVYYCAIYTGRWVPFEYWGQGTLVTVSSASGGGGSGGGGSGGGGSDIQMTQSPSSLSASVGDRVTITCRASRPIGTTLSWYQQKPGKAPKLLILWNSRLQSGVPSRFSGSGSGTDFTLTISSLQPEDFATYYCAQAGTHPTTFGQGTKVEIKR
B28: DMS0124 (bispecific antibody)
chain: EVQLLESGGGLVQPGGSLRLSCAASGFTFVKYSMGWVRQAPGKGLEWVSQISNTADRTYYAHSVKGRFTISRDNSKNTLYLQMNSLRAEDTAVYYCAIYTGRWVPFEYWGQGTLVTVSSASGGGGSGGGGSGGGGSDIQMTQSPSSLSASVGDRVTITCRASQWIGSQLSWYQQKPGKAPKLLIMWRSSLQSGVPSRFSGSGSGTDFTLTISSLQPEDFATYYCAQGLMKPMTFGQGTKVEIKR
B29: DMS0114 (bispecific antibody, V domains shown)
VH: B1 VH with G55A, G56D, H57R, D62H, K98I, E104R, D107E
B30: DMS0117 (bispecific antibody, V domains shown)
VH: B1 VH with N53D, G56D, H57R, T58R, A61D, K98I, E104K, D107E
B31: DMS0122 (bispecific antibody, V domains shown)
VH: B1 VH with N53D, G56D, H57R, T58R, A61D, K98I, E104A, D107E

These binders were tested against T1, human TNFR1 on MRC-5 cells (human, UniProt P19438 30-455) (assay: cell-based or functional assay).
T1 sequence (looked up): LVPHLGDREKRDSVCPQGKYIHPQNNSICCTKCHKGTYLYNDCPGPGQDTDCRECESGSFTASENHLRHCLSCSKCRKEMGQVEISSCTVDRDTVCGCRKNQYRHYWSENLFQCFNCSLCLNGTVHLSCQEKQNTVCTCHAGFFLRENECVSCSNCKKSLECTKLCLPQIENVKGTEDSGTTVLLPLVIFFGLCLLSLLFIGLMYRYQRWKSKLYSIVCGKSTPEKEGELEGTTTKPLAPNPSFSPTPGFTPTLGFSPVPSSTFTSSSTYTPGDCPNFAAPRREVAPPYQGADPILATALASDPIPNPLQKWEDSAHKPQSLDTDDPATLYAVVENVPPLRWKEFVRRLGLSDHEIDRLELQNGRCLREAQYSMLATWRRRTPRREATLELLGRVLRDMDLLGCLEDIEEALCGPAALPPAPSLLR

**Q.** Which “MRC-5 EC50, fold of the EC50 of DOM1h-574-16” value does the source give for B1 here?
**A.** The value was roughly 200 fold.

**Q.** With B2 as the binder, how does the “MRC-5 EC50” value read?
**A.** The value was 10 nM.

**Q.** Which “MRC-5 EC50” value does the source give for B3 here?
**A.** The value was 800 nM.

**Q.** Which “MRC-5 EC50” value does the source give for B4 here?
**A.** The value was 130 nM.

**Q.** How did the “MRC-5 EC50” value turn out when B5 was run?
**A.** The value was 300 nM.

**Q.** With B6 as the binder, how does the “MRC-5 EC50” value read?
**A.** Its value is 300 nM.

**Q.** How did the “MRC-5 EC50” value turn out when B7 was run?
**A.** Its value is 8 nM.

**Q.** How did the “MRC-5 EC50” value turn out when B8 was run?
**A.** The value was 20 nM.

**Q.** With B9 as the binder, how does the “MRC-5 EC50” value read?
**A.** The value was 17 nM.

**Q.** With B10 as the binder, how does the “MRC-5 EC50” value read?
**A.** Its value is 140 nM.

The binders below were run against mouse TNFR1 on L929 cells (mouse) (UniProt P25118) (assay: cell-based or functional assay).
mouse TNFR1 on L929 cells (mouse), sequence (P25118 30-454): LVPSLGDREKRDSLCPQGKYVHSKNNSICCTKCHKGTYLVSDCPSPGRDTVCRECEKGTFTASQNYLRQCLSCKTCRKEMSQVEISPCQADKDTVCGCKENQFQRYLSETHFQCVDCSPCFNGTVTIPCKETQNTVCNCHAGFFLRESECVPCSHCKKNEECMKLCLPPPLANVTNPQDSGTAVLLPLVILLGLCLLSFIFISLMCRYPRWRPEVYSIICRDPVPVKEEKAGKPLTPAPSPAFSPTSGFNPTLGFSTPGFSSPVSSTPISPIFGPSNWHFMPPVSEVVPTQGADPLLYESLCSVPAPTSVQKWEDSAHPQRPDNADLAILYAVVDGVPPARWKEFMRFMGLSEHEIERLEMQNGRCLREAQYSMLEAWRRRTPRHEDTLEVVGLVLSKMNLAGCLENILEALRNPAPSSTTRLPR

**Q.** B11 was tested. Which L929 ND50 did it give?
**A.** Its L929 ND50 is 6.8 nM.

**Q.** With B12 as the binder, how does the L929 ND50 read?
**A.** Its L929 ND50 is 4.2 nM.

**Q.** B13 was tested. Which L929 ND50 did it give?
**A.** Its L929 ND50 is 6.52 nM.

**Q.** How did the L929 ND50 turn out when B14 was run?
**A.** Its L929 ND50 is 5.9 nM.

Target: T1, human TNFR1 on MRC-5 cells
Assay: cell-based or functional assay
Remark: another data set of the same source

**Q.** B15 was tested. Which ND50 (MRC5) did it give?
**A.** The ND50 (MRC5) was 6 nM.

**Q.** For B16, which ND50 (MRC5) is on record?
**A.** The ND50 (MRC5) was 19 nM.

**Q.** Which ND50 (MRC5) does the source give for B17 here?
**A.** Its ND50 (MRC5) is 20 nM.

**Q.** With B18 as the binder, how does the ND50 (MRC5) read?
**A.** The ND50 (MRC5) was 17 nM.

**Q.** Which ND50 (MRC5) does the source give for B19 here?
**A.** Its ND50 (MRC5) is 12 nM.

**Q.** For B20, which ND50 (MRC5) is on record?
**A.** Its ND50 (MRC5) is 16 nM.

**Q.** For B21, which ND50 (MRC5) is on record?
**A.** The ND50 (MRC5) was 2.7 nM.

**Q.** With B22 as the binder, how does the MRC5 (ND50 in nM) read?
**A.** The MRC5 (ND50 in nM) was 1.6 nM.

**Q.** Which MRC5 (ND50 in nM) does the source give for B23 here?
**A.** The MRC5 (ND50 in nM) was 1.3 nM.

**Q.** B24 was tested. Which MRC5 (ND50 in nM) did it give?
**A.** Its MRC5 (ND50 in nM) is 1.7 nM.

**Q.** Which MRC5 (ND50 in nM) does the source give for B25 here?
**A.** The MRC5 (ND50 in nM) was 1.7 nM.

**Q.** With B26 as the binder, how does the MRC5 (ND50 in nM) read?
**A.** Its MRC5 (ND50 in nM) is 1.4 nM.

**Q.** For B27, which MRC5 (ND50 in nM) is on record?
**A.** Its MRC5 (ND50 in nM) is 1.8 nM.

**Q.** B28 was tested. Which MRC5 (ND50 in nM) did it give?
**A.** The MRC5 (ND50 in nM) was 1.9 nM.

**Q.** Which MRC5 ND50 does the source give for B11 here?
**A.** The MRC5 ND50 was 1.04 nM.

**Q.** How did the MRC5 ND50 turn out when B12 was run?
**A.** Its MRC5 ND50 is 0.99 nM.

**Q.** How did the MRC5 ND50 turn out when B13 was run?
**A.** The MRC5 ND50 was 0.96 nM.

**Q.** B14 was tested. Which MRC5 ND50 did it give?
**A.** Its MRC5 ND50 is 1.17 nM.

Target: T1, human TNFR1 on MRC-5 cells
Assay: cell-based or functional assay
Remark: another data set of the same source

**Q.** How did the “MRC5 (ND50 in nM)” value turn out when B29 was run?
**A.** Its value is 3.7 nM.

**Q.** How did the “MRC5 (ND50 in nM)” value turn out when B30 was run?
**A.** Its value is 25.9 nM.

**Q.** How did the “MRC5 (ND50 in nM)” value turn out when B31 was run?
**A.** The value was 1.5 nM.
